Source: article PMC8044208 (2021)

B1: human MLKL pseudokinase domain, as used for the KD measurements (domain or fragment)
chain: QEQIKEIKKEQLSGSPWILLRENEVSTLYKGEYHRAPVAIKVFKKLQAGSIAIVRQTFNKEIKTMKKFESPNILRIFGICIDETVTPPQFSIVMEYCELGTLRELLDREKDLTLGKRMVLVLGAARGLYRLHHSEAPELHGKIRSSNFLVTQGYQVKLAGFELRKTQTSMSLGTTREKTDRVKSTAYLSPQELEDVFYQYDVKSEIYSFGIVLWEIATGDIPFQGCNSEKIRKLVAVKRQQEPLGEDCPSELREIIDECRAHDPSVRPSVDEILKKLSTFSK

What was measured:
[1] = biological target: B1; test: previously reported
Mb(MLKL_26) = test: FACS; yeast display

Binder	Kd [1] [nM]	Kd (Mb(MLKL_26)) [nM]
Mb(MLKL_32) (protein) VSSVPTKLEVVAATPTSLLISWDAPAVTVDLYIITYGETGGNSPVQTFEVPGSKSTATISGLSPGVDYTITVYAYSFMYHDYYYPEWSPISINYRT	37.1	
B1		176
